Test results from US20040063627A1 (BROWN UNIVERSITY RESEARCH FOUNDATION, published 2004).

Target: T1, QE-Bgn (bacterially expressed recombinant human biglycan core) (human, UniProt P21810 38-368)
T1 construct: Produced in E. coli M15[pREP4]; contains no chondroitin sulfate side chains; tested as lysate of induced bacteria on a blot; also called QE-BIG; bacterially-expressed biglycan
T1 sequence: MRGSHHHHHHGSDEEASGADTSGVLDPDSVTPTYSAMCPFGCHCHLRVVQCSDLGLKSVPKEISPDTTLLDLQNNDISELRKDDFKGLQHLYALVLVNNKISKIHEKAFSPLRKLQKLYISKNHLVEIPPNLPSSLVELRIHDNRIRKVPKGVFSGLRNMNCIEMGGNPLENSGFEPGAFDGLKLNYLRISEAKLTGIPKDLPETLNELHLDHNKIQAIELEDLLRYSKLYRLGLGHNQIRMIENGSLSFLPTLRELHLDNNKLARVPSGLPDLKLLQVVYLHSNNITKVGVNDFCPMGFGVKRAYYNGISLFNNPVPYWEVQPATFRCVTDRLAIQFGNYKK
Assay: dystroglycan blot overlay on lysate of induced bacteria (FIG. 7)

binding result: no binding
B1: α-dystroglycan (dystroglycan as named in the overlay assays; fragment not named at the place) (receptor, human, UniProt Q14118 345-653, looked up)
chain: PAIAPPTETMAPPVRDPVPGKPTVTIRTRGAIIQTPTLGPIQPTRVSEAGTTVPGQIRPTMTIPGYVEPTAVATPPTTTTKKPRVSTPKPATPSTDSTTTTTRRPTKKPRTPRPVPRVTTKVSITRLETASPPTRIRTTTSGVPRGGEPNQRPELKNHIDRVDAWVGTYFEVKIPSDTFYDHEDTTTDKLKLTLKLREQQLVGEKSWVQFNSNSQLMYGLPDSSHVGKHEYFMHATDKGGLSAVDAFEIHVHRRPQGDRAPARFKAKFVGDPALVLNDIHKKIALVKKLAFAFGDRNCSTITLQNITRG
notes: also called alpha-dystroglycan
